# Experimental data published in publication PMC11480844.
# B1: H2-Kb / B5 (parent)
# chain 1: TQTVSQSDAHVTVFEGDSVELRCNYSYGGSIYLSWYIQHHGHGLQFLLKYYSGNPVVQGVNGFEAEFSKSDSSFHLRKASVHWSDSAVYFCAVSLYQGGRALIFGTGTTVSVSP
# chain 2: EAGVTQSPRYAVLQEGQAVSFWCDPISGHDTLYWYQQPRDQGPQLLVYFRDEAVIDNSQLPSDRFSAVRPKGTNSTLKIQSAKQGDTATYLCASSFAGGARAEQFFGPGTRLTVL
# chain 3: not shown
# chain 4: IQKTPQIQVYSRHPPENGKPNILNCYVTQFHPPHIEIQMLKNGKKIPKVEMSDMSFSKDWSFYILAHTEFTPTETDTYACRVKHDSMAEPKTVYWDRDM
# chain 5: SIINFEKL
# B2: H2-Kb / E8 (parent)
# chain 1: GDSVTQTEGLVTVTEGLPVKLNCTYQTTYLTIAFFWYVQYLNEAPQVLLKSSTDNKRTEHQGFHATLHKSSSSFHLQKSSAQLSDSALYYCALNTNTGKLTFGDGTVLTVKP
# chain 2: EAAVTQSPRNKVAVTGGKVTLSCNQTNNHNNMYWYRQDTGHGLRLIHYSYGAGSTEKGDIPDGYKASRPSQENFSLILELATPSQTSVYFCASGDWGAGTGQLYFGEGSKLTVL
# chain 3: not shown
# chain 4: B1 chain 4
# chain 5: SIINFEKL
# B3: H2-Kb / F5 (parent)
# chain 1: GDSVTQTEGLVTLTEGLPVMLNCTYQSTYSPFLFWYVQHLNEAPKLLLKSFTDNKRPEHQGFHATLHKSSSSFHLQKSSAQLSDSALYYCALSPSNMGYKLTFGTGTSLLVDP
# chain 2: EAAVTQSPRNKVAVTGGKVTLSCNQTNNHNNMYWYRQDTGHGLRLIHYSYGAGSTEKGDIPDGYKASRPSQENFSLILELATPSQTSVYFCASGDASEQYFGPGTRLTVL
# chain 3: not shown
# chain 4: B1 chain 4
# chain 5: SIINFEKL
# Variants of: B1
# Test: % of reporter cells activated (NFAT-GFP), raw
# Conditions: with B5; scale: % of reporter cells activated
# Further: test concentration or dose not given here.
row,Variant,ratio to parent
1,chain 5 I3H,1.01
2,chain 5 I3V,1.1
3,chain 5 I3R,1.03
4,chain 5 I3T,0.764
5,chain 5 I3W,7.01
6,chain 5 I3G,0.917
7,chain 5 I3P,1.08
8,chain 5 I3C,0.792
9,chain 5 I3Q,0.792
10,chain 5 I3A,1.01
11,chain 5 I3E,1.17
12,chain 5 I3Y,0.917
13,chain 5 I3N,0.917
14,chain 5 I3S,1.54
15,chain 5 I3M,0.972
16,chain 5 I3K,1.11
17,chain 5 I3D,1
18,chain 5 I3F,0.958
19,chain 5 I3L,0.847
20,chain 5 E6D,1
21,chain 5 E6V,0.75
22,chain 5 E6A,0.708
23,chain 5 E6H,1.03
24,chain 5 E6L,1.4
25,chain 5 E6Y,1.44
26,chain 5 E6K,1.17

row,Variant,ratio to parent
1,chain 5 E6R,0.806
2,chain 5 E6M,0.903
3,chain 5 E6I,1.36
4,chain 5 E6G,1.01
5,chain 5 E6F,1.54
6,chain 5 E6C,1.38
7,chain 5 E6W,1.12
8,chain 5 E6N,1.12
9,chain 5 E6S,1.03
10,chain 5 E6T,1.17
11,chain 5 E6Q,1.24
12,chain 5 E6P,1.11
13,chain 5 I2N,1.36
14,chain 5 I2M,1.58
15,chain 5 I2H,0.792
16,chain 5 I2G,1.13
17,chain 5 I2P,1.12
18,chain 5 I2W,1.51
19,chain 5 I2Q,1.11
20,chain 5 I2T,0.542
21,chain 5 I2K,0.889
22,chain 5 I2D,1.18
23,chain 5 I2L,1.17
24,chain 5 I2R,0.819
25,chain 5 I2F,0.875
26,chain 5 I2A,0.736

row,Variant,ratio to parent
1,chain 5 I2C,0.694
2,chain 5 I2V,0.375
3,chain 5 I2S,0.694
4,chain 5 I2E,1.1
5,chain 5 I2Y,1.01
6,chain 5 N4Q,1.71
7,chain 5 N4L,1.08
8,chain 5 N4M,0.75
9,chain 5 N4I,0.5
10,chain 5 N4E,0.778
11,chain 5 N4P,0.917
12,chain 5 N4K,1.07
13,chain 5 N4Y,1
14,chain 5 N4V,0.389
15,chain 5 N4C,0.625
16,chain 5 N4T,0.514
17,chain 5 N4R,0.556
18,chain 5 N4W,0.931
19,chain 5 N4H,0.556
20,chain 5 N4G,1.33
21,chain 5 N4A,0.931
22,chain 5 N4F,8.53
23,chain 5 N4D,1.08
24,chain 5 N4S,0.597
25,chain 5 S1A,1.43
26,chain 5 S1T,0.986

row,Variant,ratio to parent
1,chain 5 S1Q,1.08
2,chain 5 S1N,1.24
3,chain 5 S1C,0.875
4,chain 5 S1E,0.889
5,chain 5 S1G,0.889
6,chain 5 S1K,0.764
7,chain 5 S1R,1.14
8,chain 5 S1L,0.764
9,chain 5 S1V,1.39
10,chain 5 S1P,0.917
11,chain 5 S1I,1.14
12,chain 5 S1D,1.54
13,chain 5 S1W,1.65
14,chain 5 S1H,1.11
15,chain 5 S1F,1.22
16,chain 5 S1Y,0.75
17,chain 5 S1M,1.22
18,chain 5 F5G,0.569
19,chain 5 F5T,0.653
20,chain 5 F5R,1
21,chain 5 F5I,0.597
22,chain 5 F5Q,1.14
23,chain 5 F5S,0.806
24,chain 5 F5N,1.36
25,chain 5 F5A,0.611
26,chain 5 F5V,3.75

row,Variant,ratio to parent
1,chain 5 F5P,1.04
2,chain 5 F5H,0.556
3,chain 5 F5M,1.01
4,chain 5 F5E,0.472
5,chain 5 F5C,1.92
6,chain 5 F5D,1.28
7,chain 5 F5K,1.06
8,chain 5 F5L,0.958
9,chain 5 F5W,0.694
10,chain 5 F5Y,1.29
11,chain 5 L8F,1.53
12,chain 5 L8V,1.35
13,chain 5 L8K,0.903
14,chain 5 L8W,1.47
15,chain 5 L8E,1.42
16,chain 5 L8P,1.15
17,chain 5 L8A,1.54
18,chain 5 L8T,1.04
19,chain 5 L8R,1.78
20,chain 5 L8H,1.21
21,chain 5 L8N,1.49
22,chain 5 L8I,1.06
23,chain 5 L8Q,1.86
24,chain 5 L8D,1.33
25,chain 5 L8G,0.972
26,chain 5 L8M,1.61

row,Variant,ratio to parent
1,chain 5 L8C,1.4
2,chain 5 L8Y,0.958
3,chain 5 L8S,1.19
4,chain 5 K7E,1.31
5,chain 5 K7L,1.28
6,chain 5 K7D,1.11
7,chain 5 K7V,1.19
8,chain 5 K7N,1.21
9,chain 5 K7I,1.4
10,chain 5 K7Q,1.01
11,chain 5 K7G,0.917
12,chain 5 K7H,1.29
13,chain 5 K7T,1.17
14,chain 5 K7R,0.833
15,chain 5 K7W,1.19
16,chain 5 K7M,1.57
17,chain 5 K7C,1.14
18,chain 5 K7Y,1.38
19,chain 5 K7S,0.944
20,chain 5 K7A,1.19
21,chain 5 K7P,0.889
22,chain 5 K7F,0.806

# Variants of: B2
# Test: % of reporter cells activated (NFAT-GFP), raw
# Conditions: with E8; scale: % of reporter cells activated
row,Variant,ratio to parent
1,chain 5 L8G,0.949
2,chain 5 L8E,0.264
3,chain 5 L8V,0.473
4,chain 5 L8K,0.228
5,chain 5 L8D,0.154
6,chain 5 L8I,0.998
7,chain 5 L8N,0.755
8,chain 5 L8T,0.444
9,chain 5 L8Q,0.38
10,chain 5 L8A,0.534
11,chain 5 L8C,0.214
12,chain 5 L8F,0.826
13,chain 5 L8M,0.838
14,chain 5 L8W,0.344
15,chain 5 L8P,0.187
16,chain 5 L8R,0.331
17,chain 5 L8S,0.214
18,chain 5 L8Y,1.23
19,chain 5 L8H,0.898
20,chain 5 I3N,0.231
21,chain 5 I3Y,3.36
22,chain 5 I3T,0.273
23,chain 5 I3F,2.52
24,chain 5 I3E,0.331
25,chain 5 I3M,1.45

row,Variant,ratio to parent
1,chain 5 I3P,0.735
2,chain 5 I3H,1.57
3,chain 5 I3K,0.147
4,chain 5 I3V,0.61
5,chain 5 I3R,0.605
6,chain 5 I3L,1.93
7,chain 5 I3W,1.9
8,chain 5 I3G,0.241
9,chain 5 I3C,0.982
10,chain 5 I3A,0.244
11,chain 5 I3D,0.0231
12,chain 5 I3Q,0.475
13,chain 5 I3S,2.66
14,chain 5 I2R,0.251
15,chain 5 I2V,2.6
16,chain 5 I2F,0.604
17,chain 5 I2E,0.694
18,chain 5 I2N,0.771
19,chain 5 I2S,1.54
20,chain 5 I2Y,0.205
21,chain 5 I2K,0.571
22,chain 5 I2C,1.31
23,chain 5 I2A,1.19
24,chain 5 I2D,1.78
25,chain 5 I2W,3.66

row,Variant,ratio to parent
1,chain 5 I2T,2.56
2,chain 5 I2P,1.66
3,chain 5 I2H,0.943
4,chain 5 I2M,0.834
5,chain 5 I2L,2.58
6,chain 5 I2G,0.418
7,chain 5 I2Q,0.307
8,chain 5 S1W,0.0202
9,chain 5 S1Y,0.0177
10,chain 5 S1N,0.0146
11,chain 5 S1M,0.0169
12,chain 5 S1V,0.0822
13,chain 5 S1G,0.205
14,chain 5 S1D,1.87
15,chain 5 S1L,0.0264
16,chain 5 S1K,0.00805
17,chain 5 S1P,0.0215
18,chain 5 S1H,0.0497
19,chain 5 S1E,0.252
20,chain 5 S1Q,0.0368
21,chain 5 S1R,0.0279
22,chain 5 S1A,0.897
23,chain 5 S1F,0.0608
24,chain 5 S1C,0.0291
25,chain 5 S1T,0.0377

row,Variant,ratio to parent
1,chain 5 S1I,0.0565
2,chain 5 K7T,0.223
3,chain 5 K7V,0.175
4,chain 5 K7Q,0.256
5,chain 5 K7L,0.119
6,chain 5 K7R,1.06
7,chain 5 K7N,0.18
8,chain 5 K7E,0.415
9,chain 5 K7D,0.288
10,chain 5 K7H,0.14
11,chain 5 K7A,0.522
12,chain 5 K7Y,0.121
13,chain 5 K7P,0.0848
14,chain 5 K7M,0.239
15,chain 5 K7C,0.196
16,chain 5 K7F,0.14
17,chain 5 K7I,0.132
18,chain 5 K7S,0.491
19,chain 5 K7G,0.377
20,chain 5 K7W,0.235
21,chain 5 N4M,0.0197
22,chain 5 N4C,0.0617
23,chain 5 N4L,0.0142
24,chain 5 N4K,0.0265
25,chain 5 N4V,0.637

row,Variant,ratio to parent
1,chain 5 N4Y,0.0136
2,chain 5 N4I,0.11
3,chain 5 N4S,0.0377
4,chain 5 N4F,0.0343
5,chain 5 N4W,1.86
6,chain 5 N4H,0.0899
7,chain 5 N4Q,0.0151
8,chain 5 N4D,0.0157
9,chain 5 N4P,2.41
10,chain 5 N4G,0.104
11,chain 5 N4T,0.394
12,chain 5 N4E,0.0223
13,chain 5 N4A,0.402
14,chain 5 N4R,0.0317
15,chain 5 F5V,3.19
16,chain 5 F5P,1.03
17,chain 5 F5W,2.35
18,chain 5 F5M,1.04
19,chain 5 F5R,0.77
20,chain 5 F5Y,1.09
21,chain 5 F5Q,0.682
22,chain 5 F5N,1.13
23,chain 5 F5T,0.892
24,chain 5 F5S,1.09

# Variants of: B3
# Test: % of reporter cells activated (NFAT-GFP), raw
# Conditions: with F5; scale: % of reporter cells activated
row,Variant,ratio to parent
1,chain 5 F5S,1.09
2,chain 5 F5K,0.247
3,chain 5 F5T,1.2
4,chain 5 F5C,1.48
5,chain 5 F5H,0.659
6,chain 5 F5R,0.318
7,chain 5 S1V,0.307
8,chain 5 S1D,0.288
9,chain 5 S1A,0.521
10,chain 5 S1R,0.225
11,chain 5 S1N,0.161
12,chain 5 S1K,0.326
13,chain 5 S1Y,0.337
14,chain 5 I2T,1.03
15,chain 5 I2P,0.419
16,chain 5 I2S,0.483
17,chain 5 I2Q,0.472
18,chain 5 I2V,1.23
19,chain 5 I2A,0.603
20,chain 5 I2R,0.273

row,Variant,ratio to parent
1,chain 5 I3C,0.419
2,chain 5 I3R,0.161
3,chain 5 I3Q,0.464
4,chain 5 I3A,0.386
5,chain 5 I3N,0.251
6,chain 5 I3M,0.255
7,chain 5 I3V,0.487
8,chain 5 I3E,0.517
9,chain 5 I3F,0.3
10,chain 5 I3T,0.356
11,chain 5 N4R,0.191
12,chain 5 N4P,0.36
13,chain 5 N4G,0.24
14,chain 5 N4L,0.401
15,chain 5 N4W,0.438
16,chain 5 N4Q,0.15
17,chain 5 E6T,0.36
18,chain 5 E6S,0.303
19,chain 5 E6W,0.318
20,chain 5 E6D,0.371

row,Variant,ratio to parent
1,chain 5 E6Q,0.288
2,chain 5 E6N,0.296
3,chain 5 E6M,0.221
4,chain 5 E6K,0.337
5,chain 5 E6L,0.341
6,chain 5 L8V,0.521
7,chain 5 L8F,0.247
8,chain 5 L8G,0.352
9,chain 5 L8W,0.292
10,chain 5 L8A,0.195
11,chain 5 L8Q,0.288
12,chain 5 L8Y,0.742
13,chain 5 L8C,2.82
14,chain 5 K7V,2.14
15,chain 5 K7H,0.61
16,chain 5 K7M,5.55
17,chain 5 K7C,0.588
18,chain 5 K7P,0.322
